From patent publication US20180002435A1 (CELLECTIS, published 2018)

T1: recombinant BCMA protein fused to an FC fragment (SEQ ID NO 151)
T1 construct: also called BCMA-Fc fusion protein
T1 chain: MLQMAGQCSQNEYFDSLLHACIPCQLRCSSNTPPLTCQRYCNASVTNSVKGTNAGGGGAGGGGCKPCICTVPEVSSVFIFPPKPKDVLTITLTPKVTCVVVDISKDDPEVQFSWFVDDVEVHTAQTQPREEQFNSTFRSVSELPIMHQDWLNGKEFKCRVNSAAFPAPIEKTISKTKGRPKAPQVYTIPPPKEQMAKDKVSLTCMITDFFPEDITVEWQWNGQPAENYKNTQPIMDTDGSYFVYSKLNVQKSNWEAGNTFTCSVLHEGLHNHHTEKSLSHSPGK

B1: anti-BCMA CAR of SEQ ID NO 137 (other)
chain: GGGGSCPYSNPSLCSGGGGSGGGGSEVQLLESGGGLVQPGGSLRLSCAASGFTFSSYAMNWVRQAPGKGLEWVSAILSSGGSTYYADSVKGRFTISRDNSKNTLYLQMNSLRAEDTAVYYCARYWPMDIWGQGTLVTVSSGGSCPYSNPSLCSGGSEIVLTQSPGTLSLSPGERATLSCRGGQSVSSSYLAWYQQKPGQAPRLLMYDASIRATGIPDRFSGSGSGTDFTLTISRLEPEDFAVYYCQQYQSWPLTFGQGTKVEIKSDPGSGGGGSCPYSNPSLCSGGGGSAPTTTPAPRPPTPAPTIASQPLSLRPEACRPAAGGAVHTRGLDFACDIYIWAPLAGTCGVLLLSLVITLYCRRGRKKLLYIFKQPFMRPVQTTQEEDGCSCRFPEEEEGGCELRVKFSRSADAPAYQQGQNQLYNELNLGRREEYDVLDKRRGRDPEMGGKPRRKNPQEGLYNELQKDKMAEAYSEIGMKGERRRGKGHDGLYQGLSTATKDTYDALHMQALPPRE
notes: Single-chain CAR on primary T cells
B2: anti-BCMA CAR of SEQ ID NO 132 (other)
chain: GGGGSCPYSNPSLCSGGGGSGGGGSEVQLLESGGGLVQPGGSLRLSCAASGFTFSSYAMNWVRQAPGKGLEWVSAILSSGGSTYYADSVKGRFTISRDNSKNTLYLQMNSLRAEDTAVYYCARYWPMDIWGQGTLVTVSSGGSCPYSNPSLCSGGSEIVLTQSPGTLSLSPGERATLSCRGGQSVSSSYLAWYQQKPGQAPRLLMYDASIRATGIPDRFSGSGSGTDFTLTISRLEPEDFAVYYCQQYQSWPLTFGQGTKVEIKSDPTTTPAPRPPTPAPTIASQPLSLRPEACRPAAGGAVHTRGLDFACDIYIWAPLAGTCGVLLLSLVITLYCRRGRKKLLYIFKQPFMRPVQTTQEEDGCSCRFPEEEEGGCELRVKFSRSADAPAYQQGQNQLYNELNLGRREEYDVLDKRRGRDPEMGGKPRRKNPQEGLYNELQKDKMAEAYSEIGMKGERRRGKGHDGLYQGLSTATKDTYDALHMQALPPRE
notes: as for B1
B3: anti-BCMA CAR of SEQ ID NO 131 (other)
chain: EVQLLESGGGLVQPGGSLRLSCAASGFTFSSYAMNWVRQAPGKGLEWVSAILSSGGSTYYADSVKGRFTISRDNSKNTLYLQMNSLRAEDTAVYYCARYWPMDIWGQGTLVTVSSGGGGGSCPYSNPSLCSGGGGGSEIVLTQSPGTLSLSPGERATLSCRGGQSVSSSYLAWYQQKPGQAPRLLMYDASIRATGIPDRFSGSGSGTDFTLTISRLEPEDFAVYYCQQYQSWPLTFGQGTKVEIKSDPTTTPAPRPPTPAPTIASQPLSLRPEACRPAAGGAVHTRGLDFACDIYIWAPLAGTCGVLLLSLVITLYCRRGRKKLLYIFKQPFMRPVQTTQEEDGCSCRFPEEEEGGCELRVKFSRSADAPAYQQGQNQLYNELNLGRREEYDVLDKRRGRDPEMGGKPRRKNPQEGLYNELQKDKMAEAYSEIGMKGERRRGKGHDGLYQGLSTATKDTYDALHMQALPPRE
notes: as for B1
B4: anti-BCMA CAR of SEQ ID NO 135 (other)
chain: EVQLLESGGGLVQPGGSLRLSCAASGFTFSSYAMNWVRQAPGKGLEWVSAILSSGGSTYYADSVKGRFTISRDNSKNTLYLQMNSLRAEDTAVYYCARYWPMDIWGQGTLVTVSSGGGGGSCPYSNPSLCSGGGGGSEIVLTQSPGTLSLSPGERATLSCRGGQSVSSSYLAWYQQKPGQAPRLLMYDASIRATGIPDRFSGSGSGTDFTLTISRLEPEDFAVYYCQQYQSWPLTFGQGTKVEIKSDPGSGGGGSCPYSNPSLCSGGGGSAPTTTPAPRPPTPAPTIASQPLSLRPEACRPAAGGAVHTRGLDFACDIYIWAPLAGTCGVLLLSLVITLYCRRGRKKLLYIFKQPFMRPVQTTQEEDGCSCRFPEEEEGGCELRVKFSRSADAPAYQQGQNQLYNELNLGRREEYDVLDKRRGRDPEMGGKPRRKNPQEGLYNELQKDKMAEAYSEIGMKGERRRGKGHDGLYQGLSTATKDTYDALHMQALPPRE
notes: as for B1
B5: anti-BCMA CAR of SEQ ID NO 134 (other)
chain: EVQLLESGGGLVQPGGSLRLSCAASGFTFSSYAMNWVRQAPGKGLEWVSAILSSGGSTYYADSVKGRFTISRDNSKNTLYLQMNSLRAEDTAVYYCARYWPMDIWGQGTLVTVSSGGSCPYSNPSLCSGGSEIVLTQSPGTLSLSPGERATLSCRGGQSVSSSYLAWYQQKPGQAPRLLMYDASIRATGIPDRFSGSGSGTDFTLTISRLEPEDFAVYYCQQYQSWPLTFGQGTKVEIKSDPGSGGGGSCPYSNPSLCSGGGGSAPTTTPAPRPPTPAPTIASQPLSLRPEACRPAAGGAVHTRGLDFACDIYIWAPLAGTCGVLLLSLVITLYCRRGRKKLLYIFKQPFMRPVQTTQEEDGCSCRFPEEEEGGCELRVKFSRSADAPAYQQGQNQLYNELNLGRREEYDVLDKRRGRDPEMGGKPRRKNPQEGLYNELQKDKMAEAYSEIGMKGERRRGKGHDGLYQGLSTATKDTYDALHMQALPPRE
notes: as for B1
B6: anti-BCMA CAR of SEQ ID NO 133 (other)
chain: GGGGSCPYSNPSLCSGGGGSGGGGSEVQLLESGGGLVQPGGSLRLSCAASGFTFSSYAMNWVRQAPGKGLEWVSAILSSGGSTYYADSVKGRFTISRDNSKNTLYLQMNSLRAEDTAVYYCARYWPMDIWGQGTLVTVSSGGGGGSCPYSNPSLCSGGGGGSEIVLTQSPGTLSLSPGERATLSCRGGQSVSSSYLAWYQQKPGQAPRLLMYDASIRATGIPDRFSGSGSGTDFTLTISRLEPEDFAVYYCQQYQSWPLTFGQGTKVEIKSDPTTTPAPRPPTPAPTIASQPLSLRPEACRPAAGGAVHTRGLDFACDIYIWAPLAGTCGVLLLSLVITLYCRRGRKKLLYIFKQPFMRPVQTTQEEDGCSCRFPEEEEGGCELRVKFSRSADAPAYQQGQNQLYNELNLGRREEYDVLDKRRGRDPEMGGKPRRKNPQEGLYNELQKDKMAEAYSEIGMKGERRRGKGHDGLYQGLSTATKDTYDALHMQALPPRE
notes: as for B1
B7: anti-BCMA CAR of SEQ ID NO 136 (other)
chain: GGGGSCPYSNPSLCSGGGGSGGGGSEVQLLESGGGLVQPGGSLRLSCAASGFTFSSYAMNWVRQAPGKGLEWVSAILSSGGSTYYADSVKGRFTISRDNSKNTLYLQMNSLRAEDTAVYYCARYWPMDIWGQGTLVTVSSGGGGSGGGGSGGGGSEIVLTQSPGTLSLSPGERATLSCRGGQSVSSSYLAWYQQKPGQAPRLLMYDASIRATGIPDRFSGSGSGTDFTLTISRLEPEDFAVYYCQQYQSWPLTFGQGTKVEIKSDPGSGGGGSCPYSNPSLCSGGGGSAPTTTPAPRPPTPAPTIASQPLSLRPEACRPAAGGAVHTRGLDFACDIYIWAPLAGTCGVLLLSLVITLYCRRGRKKLLYIFKQPFMRPVQTTQEEDGCSCRFPEEEEGGCELRVKFSRSADAPAYQQGQNQLYNELNLGRREEYDVLDKRRGRDPEMGGKPRRKNPQEGLYNELQKDKMAEAYSEIGMKGERRRGKGHDGLYQGLSTATKDTYDALHMQALPPRE
notes: as for B1
B8: anti-BCMA CAR of SEQ ID NO 130 (other)
chain: EVQLLESGGGLVQPGGSLRLSCAASGFTFSSYAMNWVRQAPGKGLEWVSAILSSGGSTYYADSVKGRFTISRDNSKNTLYLQMNSLRAEDTAVYYCARYWPMDIWGQGTLVTVSSGGSCPYSNPSLCSGGSEIVLTQSPGTLSLSPGERATLSCRGGQSVSSSYLAWYQQKPGQAPRLLMYDASIRATGIPDRFSGSGSGTDFTLTISRLEPEDFAVYYCQQYQSWPLTFGQGTKVEIKSDPTTTPAPRPPTPAPTIASQPLSLRPEACRPAAGGAVHTRGLDFACDIYIWAPLAGTCGVLLLSLVITLYCRRGRKKLLYIFKQPFMRPVQTTQEEDGCSCRFPEEEEGGCELRVKFSRSADAPAYQQGQNQLYNELNLGRREEYDVLDKRRGRDPEMGGKPRRKNPQEGLYNELQKDKMAEAYSEIGMKGERRRGKGHDGLYQGLSTATKDTYDALHMQALPPRE
notes: as for B1
B9: anti-BCMA CAR of SEQ ID NO 138 (other)
chain: GGGGSCPYSNPSLCSGGGGSGGGGSEVQLLESGGGLVQPGGSLRLSCAASGFTFSSYAMNWVRQAPGKGLEWVSAILSSGGSTYYADSVKGRFTISRDNSKNTLYLQMNSLRAEDTAVYYCARYWPMDIWGQGTLVTVSSGGGGGSCPYSNPSLCSGGGGGSEIVLTQSPGTLSLSPGERATLSCRGGQSVSSSYLAWYQQKPGQAPRLLMYDASIRATGIPDRFSGSGSGTDFTLTISRLEPEDFAVYYCQQYQSWPLTFGQGTKVEIKSDPGSGGGGSCPYSNPSLCSGGGGSAPTTTPAPRPPTPAPTIASQPLSLRPEACRPAAGGAVHTRGLDFACDIYIWAPLAGTCGVLLLSLVITLYCRRGRKKLLYIFKQPFMRPVQTTQEEDGCSCRFPEEEEGGCELRVKFSRSADAPAYQQGQNQLYNELNLGRREEYDVLDKRRGRDPEMGGKPRRKNPQEGLYNELQKDKMAEAYSEIGMKGERRRGKGHDGLYQGLSTATKDTYDALHMQALPPRE
notes: as for B1

Molecular target: T1, recombinant BCMA protein fused to an FC …
Experiment: flow cytometry of CAR T cells, BCMA-Fc and PE labeled anti-FC antibody
Procedure: The CDC assay consisted in incubating 0.2 10⁶ transfected cells either alone, or in the presence of Rituximab (RTX, ROCHE, 400 ng) and Babby Rabbit Complement (BRC, AbD Serotec, ref#C12CA, 100 μL of the solution diluted according to the manufacturer protocol) for 2 hours at 37° C. in a final volume of 400 μL of Xvivo 10% FBS. At the end of incubation, anti BCMA-CAR T cells were recovered and labeled with recombinant BCMA protein fused to an FC fragment (SEQ ID NO 151) and a PE labeled anti-FC secondary monoclonal antibody (Jackson ImmunoResearch, ref#115-115-164, diluted 1/200). Cells were then recovered in PFA 4% before being analyzed by flow cytometry. The flow cytometry gating strategy was to determine the viability of anti-BCMA CAR positive T cells (PE positive cells) among the singlet found in the total population of cells. This analysis was performed on cells incubated alone and in the presence of RTX and BRC. Results are expressed as the ratio named “Relative frequency of viable cells among BCMA CAR positive T cells (with respect to control experiment)” described below: […]

Binding result, binds:
B1
B2
B3
B4
B5
B6
B7
B8
B9
